Consider five molecules from patent publication US20140087995A1 (published 2014).

Assay [1] has as its target T1, human calcitonin receptor (human, UniProt P30988 25-474).
T1 construct: whole, on cells; also called hCTR; hCT
T1 sequence (looked up): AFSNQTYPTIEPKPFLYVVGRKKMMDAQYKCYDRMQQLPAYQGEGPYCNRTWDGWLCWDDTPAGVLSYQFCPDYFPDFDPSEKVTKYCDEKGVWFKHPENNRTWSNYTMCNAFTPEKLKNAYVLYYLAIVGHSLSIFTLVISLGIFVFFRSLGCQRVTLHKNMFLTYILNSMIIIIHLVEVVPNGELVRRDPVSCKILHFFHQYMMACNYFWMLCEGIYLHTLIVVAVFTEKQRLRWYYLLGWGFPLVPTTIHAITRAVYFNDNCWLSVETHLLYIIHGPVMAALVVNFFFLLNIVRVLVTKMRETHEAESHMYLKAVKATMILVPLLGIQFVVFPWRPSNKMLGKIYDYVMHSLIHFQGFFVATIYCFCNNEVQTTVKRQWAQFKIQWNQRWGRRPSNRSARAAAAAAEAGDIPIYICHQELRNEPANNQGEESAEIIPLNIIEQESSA
The experiment in a line: ratio of IC50 at hCTR to IC50 at the human amylin receptor (reference). An outline of the steps: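 Membranes (35 ng/μL final) + SPA beads, 50 mM Hepes pH 7.4 buffer with 1 mM CaCl2, 5 mM MgCl₂, 0.1% OA, 0.02% Tween20; 120 min, 25° C, shaking; centrifuged, counted; IC₅₀ by one-site binding competition.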

Assay [2] deals with T1, human calcitonin receptor. The experiment in a line: SPA competition binding, membranes with human calcitonin receptor, displacement of 125I-calcitonin (Assay VII). An outline of the steps: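 BHK hCTR membranes 35 ng/μL + SPA beads 0.05 mg/well; buffer 50 mM Hepes pH 7.4, 1 mM CaCl2, 5 mM MgCl₂, 0.1% OA, 0.02% Tween20. 120 min, 25° C., shaking. Scintillation count; IC50 by one-site binding competition.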

Numbered stars: 1 amine (or outer) side, 2 acyl side, 3 side chain; on linkers, the order of the positions; unused ones are H or OH. Bridge positions count the residues as written; N and C are the ends. Side chains are listed from the residue outwards. Ends that are not written are not given here. * marks the point of attachment. C20 diacid = O=C(O)CCCCCCCCCCCCCCCCCCC(=O)*; γGlu = O=C(O)[C@H](CCC(=O)[*:2])N[*:1]

B1: N^α1 N^α1-[(4S)-4-carboxy-4-[[(4S)-4-carboxy-4-(19-carboxynonadecanoylamino)butanoyl]amino]butanoyl]-[Glu14,Arg17,Pro21,Pro27]-h-amylin (peptide)
peptide: {C20 diacid-γGlu-γGlu}-KCNTATCATQRLAEFLRHSSPNFGAIPSSTNVGSNTY-NH2
modifications: disulfide 2-7
SMILES: CC[C@H](C)[C@H](NC(=O)[C@H](C)NC(=O)CNC(=O)[C@H](Cc1ccccc1)NC(=O)[C@H](CC(N)=O)NC(=O)[C@@H]1CCCN1C(=O)[C@H](CO)NC(=O)[C@H](CO)NC(=O)[C@H](Cc1c[nH]cn1)NC(=O)[C@H](CCCNC(=N)N)NC(=O)[C@H](CC(C)C)NC(=O)[C@H](Cc1ccccc1)NC(=O)[C@H](CCC(=O)O)NC(=O)[C@H](C)NC(=O)[C@H](CC(C)C)NC(=O)[C@H](CCCNC(=N)N)NC(=O)[C@H](CCC(N)=O)NC(=O)[C@@H](NC(=O)[C@H](C)NC(=O)[C@@H]1CSSC[C@H](NC(=O)[C@H](CCCCN)NC(=O)CC[C@H](NC(=O)CC[C@H](NC(=O)CCCCCCCCCCCCCCCCCCC(=O)O)C(=O)O)C(=O)O)C(=O)N[C@@H](CC(N)=O)C(=O)N[C@@H]([C@@H](C)O)C(=O)N[C@@H](C)C(=O)N[C@@H]([C@@H](C)O)C(=O)N1)[C@@H](C)O)C(=O)N1CCC[C@H]1C(=O)N[C@@H](CO)C(=O)N[C@@H](CO)C(=O)N[C@H](C(=O)N[C@@H](CC(N)=O)C(=O)N[C@H](C(=O)NCC(=O)N[C@@H](CO)C(=O)N[C@@H](CC(N)=O)C(=O)N[C@H](C(=O)N[C@@H](Cc1ccc(O)cc1)C(N)=O)[C@@H](C)O)C(C)C)[C@@H](C)O
notes: also called compound 15
The IC50 is the concentration at which inhibition is half-maximal. As to B1, the “Ratio hCT/hAmylin binding” value in assay [1] was 26. Further, the IC50 in assay [2] turned out to be 15.5 nM.

B2: N{Alpha-1}-[(4S)-4-carboxy-4-(19-carboxynonadecanoylamino)butanoyl]-[Glu14,Arg17,Pro21,Pro27,Lys34]-h-amylin (peptide)
peptide: {C20 diacid-γGlu}-KCNTATCATQRLAEFLRHSSPNFGAIPSSTNVGKNTY-NH2
modifications: disulfide 2-7
SMILES: CC[C@H](C)[C@H](NC(=O)[C@H](C)NC(=O)CNC(=O)[C@H](Cc1ccccc1)NC(=O)[C@H](CC(N)=O)NC(=O)[C@@H]1CCCN1C(=O)[C@H](CO)NC(=O)[C@H](CO)NC(=O)[C@H](Cc1c[nH]cn1)NC(=O)[C@H](CCCNC(=N)N)NC(=O)[C@H](CC(C)C)NC(=O)[C@H](Cc1ccccc1)NC(=O)[C@H](CCC(=O)O)NC(=O)[C@H](C)NC(=O)[C@H](CC(C)C)NC(=O)[C@H](CCCNC(=N)N)NC(=O)[C@H](CCC(N)=O)NC(=O)[C@@H](NC(=O)[C@H](C)NC(=O)[C@@H]1CSSC[C@H](NC(=O)[C@H](CCCCN)NC(=O)CC[C@H](NC(=O)CCCCCCCCCCCCCCCCCCC(=O)O)C(=O)O)C(=O)N[C@@H](CC(N)=O)C(=O)N[C@@H]([C@@H](C)O)C(=O)N[C@@H](C)C(=O)N[C@@H]([C@@H](C)O)C(=O)N1)[C@@H](C)O)C(=O)N1CCC[C@H]1C(=O)N[C@@H](CO)C(=O)N[C@@H](CO)C(=O)N[C@H](C(=O)N[C@@H](CC(N)=O)C(=O)N[C@H](C(=O)NCC(=O)N[C@@H](CCCCN)C(=O)N[C@@H](CC(N)=O)C(=O)N[C@H](C(=O)N[C@@H](Cc1ccc(O)cc1)C(N)=O)[C@@H](C)O)C(C)C)[C@@H](C)O
notes: also called compound 36
With B2, the “Ratio hCT/hAmylin binding” value in assay [1] stood at 15.7. In addition, the IC50 in assay [2] turned out to be 6.3 nM.

B3: N^α1-[2-[2-[2-[[2-[2-[2-[[(4S)-4-carboxy-4-(19-carboxynonadecanoylamino)butanoyl]amino]ethoxy]ethoxy]acetyl]amino]ethoxy]ethoxy]acetyl]-[Glu14,Arg17,Pro21,Pro27 … (peptide)
peptide: KCNTATCATQRLAEFLRHSSPNFGAIPSSTNVGSNTY
modifications: C20 diacid-gGlu-2xOEG on the alpha amino group of the N-terminal residue; disulfide bridge Cys2-Cys7; C-terminal amide
notes: also called compound 19
For B3, the “Ratio hCT/hAmylin binding” value in assay [1] worked out at 36.7. In addition, in assay [2], the IC50 is 20.4 nM.

B4: N^ε-[(4S)-4-carboxy-4-(19-carboxynonadecanoylamino)butanoyl]Lys[Arg1,Arg17,Pro21,Pro27,His35]-h-amylin (peptide)
peptide: K([γGlu-C20 diacid])RCNTATCATQRLANFLRHSSPNFGAIPSSTNVGSHTY-NH2
modifications: disulfide 3-8; N-terminus assumed
SMILES: CC[C@H](C)[C@H](NC(=O)[C@H](C)NC(=O)CNC(=O)[C@H](Cc1ccccc1)NC(=O)[C@H](CC(N)=O)NC(=O)[C@@H]1CCCN1C(=O)[C@H](CO)NC(=O)[C@H](CO)NC(=O)[C@H](Cc1c[nH]cn1)NC(=O)[C@H](CCCNC(=N)N)NC(=O)[C@H](CC(C)C)NC(=O)[C@H](Cc1ccccc1)NC(=O)[C@H](CC(N)=O)NC(=O)[C@H](C)NC(=O)[C@H](CC(C)C)NC(=O)[C@H](CCCNC(=N)N)NC(=O)[C@H](CCC(N)=O)NC(=O)[C@@H](NC(=O)[C@H](C)NC(=O)[C@@H]1CSSC[C@H](NC(=O)[C@H](CCCNC(=N)N)NC(=O)[C@@H](N)CCCCNC(=O)CC[C@H](NC(=O)CCCCCCCCCCCCCCCCCCC(=O)O)C(=O)O)C(=O)N[C@@H](CC(N)=O)C(=O)N[C@@H]([C@@H](C)O)C(=O)N[C@@H](C)C(=O)N[C@@H]([C@@H](C)O)C(=O)N1)[C@@H](C)O)C(=O)N1CCC[C@H]1C(=O)N[C@@H](CO)C(=O)N[C@@H](CO)C(=O)N[C@H](C(=O)N[C@@H](CC(N)=O)C(=O)N[C@H](C(=O)NCC(=O)N[C@@H](CO)C(=O)N[C@@H](Cc1c[nH]cn1)C(=O)N[C@H](C(=O)N[C@@H](Cc1ccc(O)cc1)C(N)=O)[C@@H](C)O)C(C)C)[C@@H](C)O
notes: extended by one residue at the N-terminus; also called compound 44
Turning to B4, in assay [1], the “Ratio hCT/hAmylin binding” value amounted to 17.7. Besides, the half-inhibitory concentration (IC50) in assay [2] is 4.87 nM.

B5: N^-1-[(4S)-4-carboxy-4-(19-carboxynonadecanoylamino)butanoyl]-Gly[Arg1,Arg17,Pro21,Pro27,His35]-h-amylin (peptide)
peptide: {C20 diacid-γGlu}-GRCNTATCATQRLANFLRHSSPNFGAIPSSTNVGSHTY-NH2
modifications: disulfide 3-8
SMILES: CC[C@H](C)[C@H](NC(=O)[C@H](C)NC(=O)CNC(=O)[C@H](Cc1ccccc1)NC(=O)[C@H](CC(N)=O)NC(=O)[C@@H]1CCCN1C(=O)[C@H](CO)NC(=O)[C@H](CO)NC(=O)[C@H](Cc1c[nH]cn1)NC(=O)[C@H](CCCNC(=N)N)NC(=O)[C@H](CC(C)C)NC(=O)[C@H](Cc1ccccc1)NC(=O)[C@H](CC(N)=O)NC(=O)[C@H](C)NC(=O)[C@H](CC(C)C)NC(=O)[C@H](CCCNC(=N)N)NC(=O)[C@H](CCC(N)=O)NC(=O)[C@@H](NC(=O)[C@H](C)NC(=O)[C@@H]1CSSC[C@H](NC(=O)[C@H](CCCNC(=N)N)NC(=O)CNC(=O)CC[C@H](NC(=O)CCCCCCCCCCCCCCCCCCC(=O)O)C(=O)O)C(=O)N[C@@H](CC(N)=O)C(=O)N[C@@H]([C@@H](C)O)C(=O)N[C@@H](C)C(=O)N[C@@H]([C@@H](C)O)C(=O)N1)[C@@H](C)O)C(=O)N1CCC[C@H]1C(=O)N[C@@H](CO)C(=O)N[C@@H](CO)C(=O)N[C@H](C(=O)N[C@@H](CC(N)=O)C(=O)N[C@H](C(=O)NCC(=O)N[C@@H](CO)C(=O)N[C@@H](Cc1c[nH]cn1)C(=O)N[C@H](C(=O)N[C@@H](Cc1ccc(O)cc1)C(N)=O)[C@@H](C)O)C(C)C)[C@@H](C)O
notes: extended by one residue at the N-terminus; also called compound 47
In the case of B5, in assay [1], the “Ratio hCT/hAmylin binding” value amounted to 44.9. The IC50 in assay [2] turned out to be 15.5 nM.
